Test results from patent publication US20170355757A1 (Regeneron, published 2017).
Substitutions are numbered along the chain they refer to. Names may count otherwise.

B1: H4H12166P4 (antibody, human IgG4, V domains shown)
VH: QVQLQESGPGLVKPSETLSLTCTVSGDSVSSSYWTWIRQPPGKGLEWIGYIYYSGSSNYNPSLKSRATISVDTSKNQFSLKLSSVTAADTAVYYCAREGNVDTTMIFDYWGQGTLVTVSS
VL: AIQMTQSPSSLSASVGDRVTITCRASQGIRNDLGWYQQKPGKAPKLLIYAASSLQSGVPSRFAGRGSGTDFTLTISSLQPEDFATYYCLQDFNYPWHFGQGTKVEIK
notes: histidine-mutated CDR variant of H4H12166P; human IgG4 (S108P)
B2: H4H12166P5 (antibody, human IgG4, V domains shown)
VH: B1 VH with F107H
VL: B1 VL with H97T
notes: as for B1
B3: H4H12166P6 (antibody, human IgG4, V domains shown)
VH: B1 VH with T103H
VL: B1 VL with H97T
notes: as for B1
B4: H4H12166P8 (antibody, human IgG4, V domains shown)
VH: B1 VH with T103H
VL: B1 VL with L89H, H97T
notes: as for B1
B5: H4H12166P9 (antibody, human IgG4, V domains shown)
VH: B1 VH with T103H
VL: B1 VL
notes: as for B1
B6: H4H12166P10 (antibody, human IgG4, V domains shown)
VH: B1 VH with F107H
VL: B1 VL
notes: as for B1
B7: H4H12166P7 (antibody, human IgG4, V domains shown)
VH: B1 VH with G99H
VL: B1 VL
notes: as for B1
B8: H2aM11695N (antibody, mouse IgG2, V domains shown)
VH: QVHLVQSGAEVKKPGASVKVSCKVSGNTLTELSMHWVRQAPGKGLEWMGGFDPEDGDTIYSQKFQGRVTLTEDTSTDTAYMELSSLRSEDTAVYYCSTVGGPTSDCWGQGTLVTVSS
VL: DIQMTQSPSSLSASVGDRVTITCQASQDISNYLNWYQQKPGKAPKVLIFDASNLEPGVPSRFSGSGSGTDFTFTIISLQPEDIATYYCQQYDNLPITFGQGTRLDIK
B9: H2aM11694N (antibody, mouse IgG2, V domains shown)
VH: EVQLVESGGGVVRPGGSLRLSCAASGFTFDDYGMTWVRQAPGKGLEWVSGINWNGDSTEYSDSVKGRFTISRDNAKNSLYLQMNSLRAEDTAFYHCARENNWNFYFDYWGQGTLVTVSS
VL: EIVMTQSPATLSVSRGERATLSCRASQSVSSNLAWYQQKLGQAPRLLIYGASTRATGIPARFSGSGSGTEFTLTISSLQSEDFAVYYCQQYNNWPWTFGQGTKVEIK
B10: H2aM11684N (antibody, mouse IgG2, V domains shown)
VH: QVQLQESGPGLVKPSQTLSLTCTVSGGSISSGAYHWSWIRQHPGKGLEWIGYIYYNGDTYYNPSLKSRVTISVDTSKNQFFLKVTSVTAADTAMYYCAGEKQLTAFDIWGQGTLVTVSS
VL: VIQMTQSPSSLSASVGDRVTITCRASQDINNFLNWYQQKLGKAPKLLISDASNLQTGVPSRFSGSGSGTDFTFTISSLQPEDIAAYYCQQYDHFPYTFGQGTRLENN
B11: H2aM11682N (antibody, mouse IgG2, V domains shown)
VH: QEQLVQSGAEVKKPGASVKVSCKASGYTFTGYYIHWVRQAPGLGLEWMGWINPNSGGTKYAQKFQGRVTMTRDTSINTAYMELKRLKSDDSAVYYCARDAPPHDVFDIWGQGTLVTVSS
VL: DIQMTQSPSSLSASVGDRVTITCRASQGIRNDLGWYQQKPGKAPKRLIYAASSLQIGVPSRFSGSGSGTEFTLTISSLQPEDFATYYCLQHNSYPLTFGGGTKVEIK

Molecular target: T1, human C5 (human, UniProt P01031 19-1676)
Assay: cell-based or functional assay

| Binder | IC50, inhibition of CDC of Daudi cells, 1.66% human serum, 2 nM anti-CD20 antibody [nM] |
| --- | --- |
| B1 | 3.5 |
| B2 | 4.9 |
| B3 | 3 |
| B4 | 4.1 |
| B5 | 3.9 |
| B6 | 12 |
| B7 | 7.3 |

Molecular target: human C5 R885H-mmh (human, UniProt P01031 19-1676)
Assay: cell-based or functional assay

| Binder | IC50, inhibition of CDC of Daudi cells, C5 depleted human serum and 6.6 nM C5 Variant R885H, 7 nM anti-CD20 antibody [nM] |
| --- | --- |
| B1 | 1.5 |
| B2 | 2.1 |
| B3 | 1.3 |
| B4 | 2.1 |
| B5 | 1.7 |
| B6 | 7 |
| B7 | 4.2 |

Molecular target: African green monkey C5 (African green monkey)
Assay: cell-based or functional assay

| Binder | IC50, inhibition of CDC of Daudi cells, 1.66% African Green monkey serum, 10 nM anti-CD20 antibody [nM] | Max % Inhibition of CDC of Daudi cells, 1.66% African Green monkey serum, 10 nM anti-CD20 antibody [%] |
| --- | --- | --- |
| B1 | 7.9 | – |
| B2 | > 30 | 75 |
| B3 | 9.9 | – |
| B4 | > 20 | 79 |
| B5 | > 10 | 85 |
| B6 | > 100 | 34 |
| B7 | > 60 | 61 |

Molecular target: human C5 R885C-mmh (human, UniProt P01031 19-1676)
Assay: cell-based or functional assay

| Binder | IC50, inhibition of CDC of Daudi cells, C5 depleted human serum and 6.6 nM C5 Variant R885C, 30 nM anti-CD20 antibody [nM] |
| --- | --- |
| B1 | 0.96 |
| B2 | 1.4 |
| B3 | 0.79 |
| B4 | 1.2 |
| B5 | 0.77 |
| B6 | 3.5 |
| B7 | 2.3 |

Molecular target: T2, hC5a (human, UniProt P01031 678-751)
T2 sequence (looked up): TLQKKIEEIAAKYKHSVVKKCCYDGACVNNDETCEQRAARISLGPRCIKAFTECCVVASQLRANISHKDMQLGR
Assay: cell-based or functional assay

| Binder | IC50, inhibition of 500 pM hC5a in HEK293/Gα16/hC5aR1/NFAT-luc cells [M] |
| --- | --- |
| B8 | 4.2e-11 |
| B9 | 1.4e-10 |
| B10 | 3.5e-11 |
| B11 | 4.6e-10 |

Molecular target: T1, human C5
Assay: SPR (Biacore), mAb captured, dissociation of human C5 at pH7.4 vs pH6.0, 37°C
Method in brief: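 Anti-C5 mAbs (human IgG4 Fc) captured on an amine-coupled mouse anti-human Fc surface; recombinant C5 dissociation followed by Biacore T200 in PBS-T (0.01M phosphate, 0.15M NaCl, 0.05% Tween-20) at pH7.4 or pH6.0. Dissociative half-life (t½) calculated from kd.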

| Binder | t½ Ratio pH7.4/pH6.0 |
| --- | --- |
| B1 | 7.6 |
| B2 | 7.6 |
| B3 | 8.2 |
| B4 | 36 |
| B5 | 28 |
| B6 | 19 |
| B7 | 21 |

Molecular target: T1, human C5
Assay: cell-based or functional assay
Remark: another data set of the same source

| Binder | Human AP % Max Inhibition, hemolysis assay, 5% NHS [%] | Human AP IC50, hemolysis assay, 5% NHS [nM] | Human CP % Max Inhibition, hemolysis assay, 5% NHS [%] | Human CP IC50, hemolysis assay, 5% NHS [nM] |
| --- | --- | --- | --- | --- |
| B1 | 77 | 31.7 | 98.6 | 13.2 |
| B2 | 77.7 | 65.5 | 97.1 | 14.9 |
| B3 | 82.4 | 28.4 | 98.1 | 10.3 |
| B4 | 73.3 | 73 | 95.7 | 14.1 |
| B5 | 72.2 | 53.5 | 93.7 | 11.6 |
| B6 | – | – | 74 | 44.4 |
| B7 | 83.2 | 156 | 93.7 | 24.3 |
